This test has as its target 6His-σS (His-tagged RpoS) (E. coli) (UniProt P13445). The experiment in a line: pull-down.

Among the data in paper doi:10.1101/2022.12.15.520641 are fold increase in pull-down efficiency over RssB without Mg2+•beryllofluoride values, retold here.

UniProt P13445, sequence (P13445 whole entry): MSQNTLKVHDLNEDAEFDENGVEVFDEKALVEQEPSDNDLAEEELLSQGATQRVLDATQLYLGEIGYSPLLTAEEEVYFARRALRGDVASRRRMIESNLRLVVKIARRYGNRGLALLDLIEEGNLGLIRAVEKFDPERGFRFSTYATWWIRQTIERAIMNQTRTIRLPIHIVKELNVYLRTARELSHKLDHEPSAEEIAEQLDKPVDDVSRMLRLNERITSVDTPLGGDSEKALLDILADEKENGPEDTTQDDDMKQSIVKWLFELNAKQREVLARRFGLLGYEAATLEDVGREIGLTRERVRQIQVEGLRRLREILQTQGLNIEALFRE

On to “RssB bound to Mg2+•beryllofluoride (phosphorylated-like RssB) (from UniProt P0AEV1 1-337) (natural protein)”, for which the fold increase in pull-down efficiency over RssB without Mg2+•beryllofluoride amounted to 5 fold.
